Experimental data as given in article PMC3448026.

Assays:
purified protein [1] = substrate: O=C(O)C(=O)/C=C1/C=C[C@H](O)CC1; assay: purified protein; type: biochemical, Bacillus subtilis; settings: 2 mM NADH (saturating), 50 mM potassium phosphate pH 8.0, 5 µM BacG
purified protein [2] = substrate: O=C(O)C(=O)/C=C1\C=C[C@H](O)CC1; assay: purified protein; type: biochemical, Bacillus subtilis; settings: 2 mM NADH (saturating), 50 mM potassium phosphate pH 8.0, 1 µM BacG

B1: BacG (Bacillus subtilis subsp. subtilis str. 168) (protein)
chain: MSKRTAFVMGASQGIGKAIALKLADQHFSLVINSRNLDNIESVKEDILAKHPEASVIVLAGDMSDQHTRAGIFQKIESQCGRLDVLINNIPGGAPDTFDNCNIEDMTATFTQKTVAYIDAIKRASSLMKQNEFGRIINIVGNLWKEPGANMFTNSMMNAALINASKNISIQLAPHNITVNCLNPGFIATDRYHQFVENVMKKNSISKQKAEEQIASGIPMKRVGSAEETAALAAFLASEEASYITGQQISADGGSMKSI
kcat (purified protein [1]): 0.553 s⁻¹ | kcat (purified protein [2]): 1.19 s⁻¹
